These results are taken from paper PMC3714537 (Molecular cell, 2012).

This assay addresses linear tetra-Ub (UniProt P0CG47 1-76; P0CG47 1-76; P0CG47 1-76; P0CG47 1-76).

B1: GFP-UBAN (EGFP fused to the CoZi domain of murine NEMO, amino acids 183-339) (domain or fragment, UniProt O88522 183-339, looked up)
chain: QLESEREVLQQQHSVQVDQLRMQNQSVEAALRMERQAASEEKRKLAQLQAAYHQLFQDYDSHIKSSKGMQLEDLRQQLQQAEEALVAKQELIDKLKEEAEQHKIVMETVPVLKAQADIYKADFQAERHAREKLVEKKEYLQEQLEQLQREFNKLKVG
B1 displayed a Kd of 4.7 µM.

The Kd is a measure of binding affinity in units of concentration.
